The series concerns the molecule itself.

B1: recombinant Arabidopsis dehydrin LEA14 (AT2G21490) with carboxy-terminal hexahistidyl tag (natural protein)
chain: MADLRDEKGNPIHLTDTQGNPIVDLTDEHGNPMYLTGVVSSTPQHKESTTSDIAEHPTSTVGETHPAAAPAGAGAATAATATGVSAGTGATTTGQQHHGSLEEHLRRSGSSSSSSSEDDGQGGRRKKSIKEKIKEKFGSGKHKDEQTPATATTTGPATTDQPHEKKGILEKIKDKLPGHHNHNHP
A word on the Kd: it is a measure of binding affinity in units of concentration. A lower Kd goes with tighter binding. With B1, binding was characterised by a dissociation constant (Kd) of 13.3 µM. This lies in the double-digit micromolar range.

B2: recombinant soybean dehydrin GmPM12 (Glyma.04G009900.1) with carboxy-terminal hexahistidyl tag (natural protein)
chain: MAEAQLRDQHGNPVPLTDQYGNPVILTDERGNPVQLTGVATTATGTAGSGFGSYGTGAYGGGASATTVADLLATQPRSGREARELRRSSSSSSSSSEDDGQGGRRKKGVKDKIKEKLPGVGGGNNNKEHAHTTTAPTTATNHPADQHEKKGIMERIKEKLPGHHTHLE
On to B2, for which binding was characterised by a dissociation constant (Kd) of 6.8 µM. This Kd is about 2-fold lower than that of the protein before.

For the origin of these results see PMC11612773 (2024).
